Laboratory results published in patent US6277558.
Ends that are not written are not given here.

Target: GP sera of Examples 8 to 11 (anti sera from two GP patients)
Test: inhibition ELISA: peptide preincubated with GP antibodies for 12 hours, then plates coated with α3 NC1 bovine monomer

Binder: ISRCQVCMKKRH (also: the two cysteines blocked, group not given here) [α3 carboxy terminal peptide (12 Mer synthetic peptide of human α3(IV) NC1)]
- percent inhibition at saturation: 60%
